*1 amine or outer side, *2 acyl side, *3 side chain or, on linkers, in order; H or OH if unused. Bridges are numbered along the chain shown (N, C = ends). Where no end group is shown, it is not given here. [ ]: non-standard residue; d: D form. TATA = O=C(CC[*:1])N1CN(C(=O)CC[*:2])CN(C(=O)CC[*:3])C1; Phe(2-Me) = Cc1ccccc1C[C@H](N)C(=O)O
Assays:
[1] = target: T1, Human TREM2 extracellular domain (ECD), residues 19-131, C-terminally biotinylated, deglycosylated (human, UniProt Q9NZC2 19-131, C-terminally biotinylated; deglycosylated); assay: BLI steady state, deglycosylated human TREM2 ECD on sensor
T1 construct: range 19-131; loaded on Superstreptavidin biosensors; also called triggering receptor expressed on myeloid cells 2; Human BLI (deglycosylated)
T1 sequence (looked up): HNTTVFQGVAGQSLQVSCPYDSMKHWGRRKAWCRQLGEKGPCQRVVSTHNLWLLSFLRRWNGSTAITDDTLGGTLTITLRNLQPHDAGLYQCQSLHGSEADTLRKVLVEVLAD
Method: (§1) Bio-layer interferometry was performed on an Octet RED384® system (Sartorius) at 25° C. in a buffer containing 50 mM HEPES (pH 7.5), 150 mM NaCl and 0.1% Tween. […] Reference wells containing no bicycle peptides and reference sensors loaded with an unrelated protein (His-tagged MLLT3a) were subjected to the same assay protocol and double reference subtraction was used for processing to account for non-specific binding. Traces were analysed using Octet Software (Version 11.0). Association and dissociation curves were globally fit and the response at equilibrium (Req) plotted against concentration to obtain steady-state KD values.

[2] = target: T2, Human TREM2 extracellular domain (ECD), residues 19-131, C-terminally biotinylated, glycosylated (human, UniProt Q9NZC2 19-131, C-terminally biotinylated; glycosylated); assay: BLI steady state, glycosylated human TREM2 ECD on sensor
T2 construct: range 19-131; loaded on Superstreptavidin biosensors; also called Human BLI glycosylated
T2 sequence (looked up): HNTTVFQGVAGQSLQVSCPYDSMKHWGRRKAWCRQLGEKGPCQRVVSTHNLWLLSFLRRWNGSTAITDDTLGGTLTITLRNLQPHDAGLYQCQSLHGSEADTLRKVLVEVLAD
Method: as §1

[3] = target: T3, TREM2 on human iPSC macrophages (human, UniProt Q9NZC2 19-230); assay: cell-based or functional assay
T3 sequence (looked up): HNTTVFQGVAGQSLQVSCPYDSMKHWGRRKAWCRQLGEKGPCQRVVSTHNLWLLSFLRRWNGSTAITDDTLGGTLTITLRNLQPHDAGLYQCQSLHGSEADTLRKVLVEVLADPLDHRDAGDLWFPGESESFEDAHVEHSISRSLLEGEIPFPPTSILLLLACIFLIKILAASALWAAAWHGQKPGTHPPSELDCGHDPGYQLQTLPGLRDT

[4] = target: T1, Human TREM2 extracellular domain (ECD), …; assay: Bio-layer interferometry (Octet), direct binding: biotinylated human TREM2 ECD loaded on Superstreptavidin biosensors, peptide in solution at 0.195 to 12.5 µM (7 traces)
Method: as §1

[5] = target: T4, Cyno TREM2 (Cyno, UniProt A0A2K5UY34 49-161); assay: BLI steady state, cyno TREM2 on sensor
T4 construct: range 19-131; also called Cyno BLI
T4 sequence: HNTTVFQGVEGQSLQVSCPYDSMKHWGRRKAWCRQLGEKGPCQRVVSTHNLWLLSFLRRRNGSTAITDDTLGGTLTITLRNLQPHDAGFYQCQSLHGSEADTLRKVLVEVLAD
Method: as §1

B1: BCY20066 (peptide)
peptide: CSEYCFWXFYHC
modifications: N-terminal acetyl (Ac); CiSEYCiiFW[44DFP]FYHCiii; Ci, Cii, Ciii on TATA scaffold
Q: What does the source list for B1?
A: Kd [1]: 1860 nM; Kd [2]: 980 nM

B2: BCY20073 (peptide)
peptide: CSEYCFWPXYHC
modifications: N-terminal acetyl (Ac); CiSEYCiiFWP[4FPhe]YHCiii; Ci, Cii, Ciii on TATA scaffold
Q: For B2, which Kd [1] is on record?
A: Its Kd is 2320 nM.

Q: And the Kd [2]?
A: Its Kd is 2130 nM.

Q: With ACSEYCFWPFYHCA (linker 2-6-13 via TATA) [BCY16054] as the binder, how does the “pSYK (µM)” value [3] read?
A: Its value is 10.7 µM.

Q: What about the Kd [4] of the same binder?
A: Its Kd is 680 nM.

Q: And the Kd [1]?
A: Its Kd is 700 nM.

Q: And the Kd [5]?
A: The Kd was 3300 nM.

B3: BCY20075 (peptide)
peptide: CSEYCFWPXYHC
modifications: N-terminal acetyl (Ac); CiSEYCiiFWP[44BPA]YHCiii; Ci, Cii, Ciii on TATA scaffold
Q: What does the source list for B3?
A: Kd [1]: 2400 nM; Kd [2]: 1510 nM

B4: BCY20060 (peptide)
peptide: CSEYCFXPFYHC
modifications: N-terminal acetyl (Ac); CiSEYCiiF[6MeTrp]PFYHCiii; Ci, Cii, Ciii on TATA scaffold
Q: Which results are given for B4?
A: Kd [1]: 1390 nM; Kd [2]: 1110 nM

B5: BCY20071 (peptide)
peptide: CSEYCFWPXYHC
modifications: N-terminal acetyl (Ac); CiSEYCiiFWP[2MePhe]YHCiii; Ci, Cii, Ciii on TATA scaffold
Q: B5 was tested. Which Kd [1] did it give?
A: Its Kd is 910 nM.

Q: What about the Kd [2] of the same binder?
A: Its Kd is 780 nM.

Q: For Ac-CSEYCF[Phe(2-Me)]PFYHC (linker 1-5-12 via TATA) [BCY20063], which Kd [1] is on record?
A: Its Kd is 1300 nM.

Q: And the Kd [2]?
A: The Kd was 1580 nM.
